Test [1] has as its target purified soluble αvβ3 integrin (Millipore) (UniProt P06756 31-992; P05106 27-718).
For test [2], the target named is soluble recombinant α5β1 integrin (R&D Systems) (UniProt P08648 42-995; P05556 21-728).
Test [3] deals with purified soluble αvβ5 integrin (Millipore) (UniProt P06756 31-992; P18084 24-719).
purified soluble αvβ5 integrin (Millipore), sequence (P06756 31-992, chain 1 of 2): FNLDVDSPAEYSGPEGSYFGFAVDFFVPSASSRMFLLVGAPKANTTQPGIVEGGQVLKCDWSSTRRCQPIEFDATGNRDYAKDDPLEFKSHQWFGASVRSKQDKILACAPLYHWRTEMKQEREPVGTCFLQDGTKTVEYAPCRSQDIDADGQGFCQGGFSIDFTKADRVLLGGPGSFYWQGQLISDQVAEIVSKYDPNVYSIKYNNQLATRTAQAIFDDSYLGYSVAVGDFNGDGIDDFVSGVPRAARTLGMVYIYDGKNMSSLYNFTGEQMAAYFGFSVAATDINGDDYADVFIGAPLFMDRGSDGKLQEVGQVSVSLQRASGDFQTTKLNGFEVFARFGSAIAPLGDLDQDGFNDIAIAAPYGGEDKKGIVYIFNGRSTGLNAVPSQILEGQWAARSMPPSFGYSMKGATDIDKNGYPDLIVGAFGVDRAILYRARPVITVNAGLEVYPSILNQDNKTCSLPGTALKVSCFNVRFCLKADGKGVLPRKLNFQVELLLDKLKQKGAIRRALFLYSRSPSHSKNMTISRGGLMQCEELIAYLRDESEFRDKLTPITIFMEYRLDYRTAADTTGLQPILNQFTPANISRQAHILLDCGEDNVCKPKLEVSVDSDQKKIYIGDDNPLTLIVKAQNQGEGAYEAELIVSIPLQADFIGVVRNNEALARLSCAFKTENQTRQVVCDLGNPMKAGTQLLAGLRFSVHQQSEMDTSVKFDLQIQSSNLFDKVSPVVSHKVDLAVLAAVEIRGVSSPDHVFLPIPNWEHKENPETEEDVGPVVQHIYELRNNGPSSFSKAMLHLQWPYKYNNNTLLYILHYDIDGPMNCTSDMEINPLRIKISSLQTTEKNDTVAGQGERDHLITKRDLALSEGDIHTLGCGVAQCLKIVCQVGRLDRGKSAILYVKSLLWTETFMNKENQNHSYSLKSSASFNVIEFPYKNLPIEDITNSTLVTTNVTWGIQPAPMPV
purified soluble αvβ5 integrin (Millipore), sequence (P18084 24-719, chain 2 of 2): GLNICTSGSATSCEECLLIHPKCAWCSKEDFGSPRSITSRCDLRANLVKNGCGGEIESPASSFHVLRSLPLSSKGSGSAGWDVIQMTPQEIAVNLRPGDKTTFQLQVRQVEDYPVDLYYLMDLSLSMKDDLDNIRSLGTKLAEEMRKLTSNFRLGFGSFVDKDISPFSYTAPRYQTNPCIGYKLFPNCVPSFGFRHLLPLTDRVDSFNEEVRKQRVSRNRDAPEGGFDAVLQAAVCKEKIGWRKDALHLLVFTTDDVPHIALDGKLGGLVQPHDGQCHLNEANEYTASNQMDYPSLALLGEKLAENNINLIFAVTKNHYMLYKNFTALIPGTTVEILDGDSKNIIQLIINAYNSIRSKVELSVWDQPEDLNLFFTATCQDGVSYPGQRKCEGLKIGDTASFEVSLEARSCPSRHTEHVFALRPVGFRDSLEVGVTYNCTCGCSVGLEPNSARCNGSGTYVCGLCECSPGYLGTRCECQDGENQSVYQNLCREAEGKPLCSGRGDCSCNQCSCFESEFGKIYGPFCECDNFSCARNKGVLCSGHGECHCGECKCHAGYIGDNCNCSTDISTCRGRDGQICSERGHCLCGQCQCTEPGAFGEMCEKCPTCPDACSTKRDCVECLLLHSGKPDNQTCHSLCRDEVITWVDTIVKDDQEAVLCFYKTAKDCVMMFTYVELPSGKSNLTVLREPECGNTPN

purified soluble αvβ3 integrin (Millipore), sequence (P06756 31-992, chain 1 of 2): as the sequence (P06756 31-992, chain 1 of 2) above
purified soluble αvβ3 integrin (Millipore), sequence (P05106 27-718, chain 2 of 2): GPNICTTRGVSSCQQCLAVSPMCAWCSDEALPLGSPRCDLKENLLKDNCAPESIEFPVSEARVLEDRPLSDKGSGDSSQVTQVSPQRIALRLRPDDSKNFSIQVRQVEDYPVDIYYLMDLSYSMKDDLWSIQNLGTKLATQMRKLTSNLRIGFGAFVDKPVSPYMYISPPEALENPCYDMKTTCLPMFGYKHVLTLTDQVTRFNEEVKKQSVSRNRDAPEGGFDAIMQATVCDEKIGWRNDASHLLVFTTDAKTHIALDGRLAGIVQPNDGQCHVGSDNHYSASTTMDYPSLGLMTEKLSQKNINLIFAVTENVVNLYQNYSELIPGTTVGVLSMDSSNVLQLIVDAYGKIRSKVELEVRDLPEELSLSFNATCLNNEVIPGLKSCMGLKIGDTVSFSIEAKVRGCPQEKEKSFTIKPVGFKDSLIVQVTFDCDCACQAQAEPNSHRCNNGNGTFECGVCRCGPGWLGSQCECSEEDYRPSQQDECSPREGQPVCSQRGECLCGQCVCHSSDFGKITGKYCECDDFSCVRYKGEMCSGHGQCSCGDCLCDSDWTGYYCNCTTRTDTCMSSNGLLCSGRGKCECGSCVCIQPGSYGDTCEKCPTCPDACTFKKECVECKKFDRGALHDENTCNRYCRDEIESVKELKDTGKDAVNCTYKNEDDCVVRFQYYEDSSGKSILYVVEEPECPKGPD
soluble recombinant α5β1 integrin (R&D Systems), sequence (P08648 42-995, chain 1 of 2): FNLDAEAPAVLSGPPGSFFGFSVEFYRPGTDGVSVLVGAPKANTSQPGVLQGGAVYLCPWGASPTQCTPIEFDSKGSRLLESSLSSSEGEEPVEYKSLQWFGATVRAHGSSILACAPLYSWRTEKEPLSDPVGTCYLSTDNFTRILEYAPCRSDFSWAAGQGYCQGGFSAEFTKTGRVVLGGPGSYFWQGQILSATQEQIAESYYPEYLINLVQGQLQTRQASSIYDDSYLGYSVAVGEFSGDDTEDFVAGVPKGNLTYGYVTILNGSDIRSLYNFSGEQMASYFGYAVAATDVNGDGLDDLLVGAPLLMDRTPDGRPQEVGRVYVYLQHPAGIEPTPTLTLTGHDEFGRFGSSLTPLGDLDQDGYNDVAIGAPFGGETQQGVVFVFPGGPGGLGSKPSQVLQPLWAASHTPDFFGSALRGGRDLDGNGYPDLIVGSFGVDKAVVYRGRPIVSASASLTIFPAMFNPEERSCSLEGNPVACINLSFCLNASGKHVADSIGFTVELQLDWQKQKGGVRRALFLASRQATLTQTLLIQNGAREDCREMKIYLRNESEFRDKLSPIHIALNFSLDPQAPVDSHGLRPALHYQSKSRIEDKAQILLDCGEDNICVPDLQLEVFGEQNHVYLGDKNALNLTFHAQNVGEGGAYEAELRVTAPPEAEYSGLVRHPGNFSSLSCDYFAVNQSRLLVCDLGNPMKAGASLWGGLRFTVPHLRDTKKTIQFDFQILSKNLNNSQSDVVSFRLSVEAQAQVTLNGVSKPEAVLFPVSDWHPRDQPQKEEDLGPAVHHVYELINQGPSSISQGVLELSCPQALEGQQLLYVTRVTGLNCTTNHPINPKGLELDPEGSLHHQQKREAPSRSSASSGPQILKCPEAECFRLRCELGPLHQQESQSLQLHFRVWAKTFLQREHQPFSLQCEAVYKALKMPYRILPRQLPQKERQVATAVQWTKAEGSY
soluble recombinant α5β1 integrin (R&D Systems), sequence (P05556 21-728, chain 2 of 2): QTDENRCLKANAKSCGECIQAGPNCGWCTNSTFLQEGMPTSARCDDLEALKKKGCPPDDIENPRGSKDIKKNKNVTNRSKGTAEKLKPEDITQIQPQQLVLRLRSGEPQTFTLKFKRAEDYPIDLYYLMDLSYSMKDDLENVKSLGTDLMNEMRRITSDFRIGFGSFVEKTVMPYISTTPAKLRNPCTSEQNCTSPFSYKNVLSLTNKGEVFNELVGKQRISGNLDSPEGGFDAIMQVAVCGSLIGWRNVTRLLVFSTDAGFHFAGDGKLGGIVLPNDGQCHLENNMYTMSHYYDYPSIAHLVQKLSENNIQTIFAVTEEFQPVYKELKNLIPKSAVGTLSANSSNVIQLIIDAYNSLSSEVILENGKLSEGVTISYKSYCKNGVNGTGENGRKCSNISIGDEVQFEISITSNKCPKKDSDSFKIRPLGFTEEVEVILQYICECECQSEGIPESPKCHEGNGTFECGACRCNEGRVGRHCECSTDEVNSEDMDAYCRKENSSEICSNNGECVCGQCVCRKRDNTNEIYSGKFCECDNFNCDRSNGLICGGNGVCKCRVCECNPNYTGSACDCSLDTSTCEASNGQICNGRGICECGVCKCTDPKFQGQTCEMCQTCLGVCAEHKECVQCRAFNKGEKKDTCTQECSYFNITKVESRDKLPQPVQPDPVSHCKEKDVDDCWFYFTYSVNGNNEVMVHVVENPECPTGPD

B1: Contortrostatin (CN), native, purified from Agkistrodon contortrix contortrix venom (ligand)
chain: DAPANPCCDAATCKLTTGSQCADGLCCDQCKFMKEGTVCRRARGDDLDDYCNGISAGCPRNPFH
B1: the values for the Kd in test [1], in test [2] and in test [3] were 6.6 nM, 191 nM and 19.5 nM, respectively.

In general, Kd refers to the concentration at which binding is half-saturated.
